According to US9688764B2, “Methods of treating breast cancer by administering anti-human prolactin receptor (PRLR) antibodies” (REGENERON PHARMACEUTICALS, INC., priority 2013, dated 2017):
Like-named read-outs stand apart in the source and are kept apart here.

Key:
[1] = test system: MCF7/hPRLR (MCF7/PRLR) cells; assay: Cell viability (cell kill) assay, nuclear counts; type: cell-based, human
Description: (§1) PRLR-overexpressing cells, including HEK293, PC3, MCF7 and NCI-N87, were generated to assess the ability of anti-PRLR conjugated antibodies to reduce cell viability. For comparative purposes, PC3 and T47D cells with overexpressed ErbB2 were also generated, as well as an MCF7 cell line over-expressing both hPRLR and hErbB2. Briefly, Lipofectamine® 2000-mediated transfection methodology was utilized to generate HEK293 cells expressing human PRLR (HEK293/hPRLR) or human ErbB2 (HEK293/hErbB2). Lipofectamine LTX with Plus Reagent was used to generate PC3 cells expressing human PRLR (PC3/hPRLR) or human ErbB2 (PC3/hErbB2). Lentiviral-mediated transduction was utilized to generate MCF7 cells expressing human PRLR (MCF7/hPRLR), NCI-N87 cells expressing human PRLR (NCI-N87/hPRLR), T47D cells over-expressing human ErbB2 (T47D/hErbB2), and MCF7 cells expressing both human PRLR and human ErbB2 (MCF7/hPRLR/hErbB2). All lines were selected for at least two weeks in complete growth media plus appropriate selection reagents. Stably expressing populations were enriched for PRLR expression via FACS using the anti PRLR antibody Control I.
(§2) Next, the ability of anti-PRLR-DM1 antibody-drug conjugates (i.e., anti-PRLR antibodies conjugated to DM1 via a non-cleavable linker [SMCC]) to reduce cell viability was determined using in vitro cell based assays. Cells were seeded in PDL-coated 96 well plates at 1500 to 10000 cells per well in complete growth media and allowed to grow overnight. For cell viability curves, ADCs or free DM1 (as the methyl disulfide derivative DM1-SMe) were added to the cells at final concentrations ranging from 500 nM to 5 pM and incubated for 3 days. The 293, PC3 and T47D cells were incubated with CCK8 (Dojindo, Rockville, Md.) for the final 1-3 hours and the absorbance at 450 nm (OD450) was determined on a Flexstation3 (Molecular Devices, Sunnyvale, Calif.). MCF7 cells were treated with Hoechst 33342 nuclear stain while being fixed with 4% formaldehyde. Images were acquired on the ImageXpress micro XL (Molecular Devices, Sunnyvale, Calif.) and nuclear counts were determined via Columbus image analysis software (Perkin Elmer, Shelton, Conn.). Background OD450 values (PC3, 293, and T47D) or nuclear counts (MCF7) from digitonin (40 nM) treated cells was subtracted from all wells and viability was expressed as a percentage of the untreated controls. IC50 values were determined from a four-parameter logistic equation over a 10-point response curve (GraphPad Prism).
(§3) Finally, the potency of anti-PRLR antibodies conjugated to DM1 via the non-cleavable linker SMCC was compared to the cell killing potency of anti-PRLR antibodies conjugated to MMAE via the cleavable linker: mc-vc-PAB (available from Concortis, San Diego, Calif.). Cells used in this experiment were PC3, PC3/hPRLR, MCF7/ATCC and MCF7/PRLR.
(§4) Additional toxins (DM4, MeNHC3-May, and MMD) conjugated to anti-PRLR antibodies were also tested in T47D and MCF7/hPRLR cell lines, and results are summarized in Tables 19 (293 and T47D cell killing) and 20 (MCF7/ATCC and MCF7/PRLR cell killing). (ND=not detected).

HEK293 (293) cells = assay: Cell viability (cell kill) assay; type: cell-based
Description: as §1, §2

T47D cells = assay: Cell viability (cell kill) assay; type: cell-based; conditions: T47D; for IC50: read-out: IC50
Procedure: as §2
Additionally, the impact of the PRLR ligand, PRL, on PRLR-SMCC-DM1 cell kill in T47D cells was assessed. T47D cells were incubated simultaneously with PRL (15 nM) and either a non-blocking anti PRLR antibody (H1H6782P) or a receptor blocking antibody (H1H6958N2).
as §4

MCF7 (MCF7/ATCC) cells = assay: Cell viability (cell kill) assay, nuclear counts; type: cell-based; conditions: MCF7/ATCC
Description: as §1, §2, §3, §4

PC3/hPRLR cells = assay: Cell viability (cell kill) assay; type: cell-based, human; conditions: PC3/hPRLR; Table 18
Description: as §1, §2, §3

Row | Molecule | % Kill ([1]; Table 20) [%] | IC50 ([1]; Table 20) [nM] | % Kill (HEK293 (293) cells; 293, Table 19) [%] | IC50 (HEK293 (293) cells; 293, Table 19) [nM] | % Kill (T47D cells; Table 19) [%] | IC50 (T47D cells; Table 19) [nM] | % Kill (MCF7 (MCF7/ATCC) cells; Table 20) [%] | IC50 (MCF7 (MCF7/ATCC) cells; Table 20) [nM] | IC50 (HEK293 (293) cells; HEK293, Table 13, + 15 nM PRL) [nM] | IC50 (HEK293 (293) cells; HEK293, Table 13, without PRL) [nM] | IC50 (T47D cells; Table 13, + 15 nM PRL) [nM] | IC50 (T47D cells; Table 13, without PRL) [nM] | % Kill ([1]; Table 18) [%] | IC50 ([1]; Table 18) [nM] | % Kill (MCF7 (MCF7/ATCC) cells; Table 18) [%] | IC50 (MCF7 (MCF7/ATCC) cells; Table 18) [nM] | % Kill (PC3/hPRLR cells) [%] | IC50 (PC3/hPRLR cells) [nM]
1 | COc1cc2cc(c1Cl)N(C)C(=O)CC(OC(=O)C(C)N(C)C(=O)CCSSC)C1(C)OC1C(C)C1CC(O)(NC(=O)O1)C(OC)C=CC=C(C)C2 (stereo not drawn) [Free DM1 (Me-SS-May)] | 80 | 0.8 | 95 | 1.2 | 100 | 1.5 | 80 | 1.3 |  |  |  |  |  |  |  |  |  | 
2 | H1H6782P-SMCC-DM1 (conjugate) VH: EVQLVESGGGLVQPGRSLRLSCAASGFTFDDYAMHWVRQAPGKGLEWVSGIIWNSGHIGYGDSVKGRFTISRDNAKKSLYLQMNSLRAEDTALYYCARDSGRYQSYFDYWGQGTLVTVSS VL: DIQMTQSPSTLSASVGDRVTITCRASHIISSWLAWYQQKPGKAPKVLIFKASSLESGVPSRFSGSGSGTEFTLTISSLQPDDFATYYCQQYNTYSRTFGQGTKVEIK | 80 | 0.3 | 80 | 120 | 100 | 3 | 70 | 250 | 70 | 90 | 2 | 1 |  |  |  |  |  | 
3 | H1H6782P-mc-VC-PAB-MMD (conjugate) VH: EVQLVESGGGLVQPGRSLRLSCAASGFTFDDYAMHWVRQAPGKGLEWVSGIIWNSGHIGYGDSVKGRFTISRDNAKKSLYLQMNSLRAEDTALYYCARDSGRYQSYFDYWGQGTLVTVSS VL: DIQMTQSPSTLSASVGDRVTITCRASHIISSWLAWYQQKPGKAPKVLIFKASSLESGVPSRFSGSGSGTEFTLTISSLQPDDFATYYCQQYNTYSRTFGQGTKVEIK | 90 | 0.3 | 70 |  | 90 | 2 | 50 | 200 |  |  |  |  |  |  |  |  |  | 
4 | H1H6782P-mc-VC-PAB-MeNHC3-May (conjugate) VH: EVQLVESGGGLVQPGRSLRLSCAASGFTFDDYAMHWVRQAPGKGLEWVSGIIWNSGHIGYGDSVKGRFTISRDNAKKSLYLQMNSLRAEDTALYYCARDSGRYQSYFDYWGQGTLVTVSS VL: DIQMTQSPSTLSASVGDRVTITCRASHIISSWLAWYQQKPGKAPKVLIFKASSLESGVPSRFSGSGSGTEFTLTISSLQPDDFATYYCQQYNTYSRTFGQGTKVEIK | 80 | 0.2 | 90 |  | 90 | 2 | 50 | 250 |  |  |  |  |  |  |  |  |  | 
5 | H1H6953N-mc-VC-PAB-MMAE (conjugate) VH: EVQLLESGGGLVQPGGTLRLSCAASGFTFSAYAMSWVRQAPGKGLEWVSSINVRAGDTYYADSVKGRFTISRDNSKNTLFLLMNSLRAEDTAAYYCAKARYSSNWGFDFWGQGTLVTVSS VL: DIVMTQSPDSLTVSLGARTTINCQSSQTILHSSNNHNYLAWYQQKPGLPPKLLIYWSSTRESGVPDRFSGSGSGTDFTLTISSLQAEDVAIYYCQQYSNTPYTFGQGTKLEIN | 85 | 0.1 |  |  | 80 | 1 | 40 | 150 |  |  |  |  | 85 | 0.1 | 42 | 150 | 80 | 0.2
6 | H1H6953N-mc-VC-PAB-MMD (conjugate) VH: EVQLLESGGGLVQPGGTLRLSCAASGFTFSAYAMSWVRQAPGKGLEWVSSINVRAGDTYYADSVKGRFTISRDNSKNTLFLLMNSLRAEDTAAYYCAKARYSSNWGFDFWGQGTLVTVSS VL: DIVMTQSPDSLTVSLGARTTINCQSSQTILHSSNNHNYLAWYQQKPGLPPKLLIYWSSTRESGVPDRFSGSGSGTDFTLTISSLQAEDVAIYYCQQYSNTPYTFGQGTKLEIN | 90 | 0.2 | 70 |  | 90 | 1 | 50 |  |  |  |  |  |  |  |  |  |  | 
7 | H1H6953N-mc-VC-PAB-MeNHC3-May (conjugate) VH: EVQLLESGGGLVQPGGTLRLSCAASGFTFSAYAMSWVRQAPGKGLEWVSSINVRAGDTYYADSVKGRFTISRDNSKNTLFLLMNSLRAEDTAAYYCAKARYSSNWGFDFWGQGTLVTVSS VL: DIVMTQSPDSLTVSLGARTTINCQSSQTILHSSNNHNYLAWYQQKPGLPPKLLIYWSSTRESGVPDRFSGSGSGTDFTLTISSLQAEDVAIYYCQQYSNTPYTFGQGTKLEIN | 80 | 0.2 |  |  | 90 | 1 | 60 | 150 |  |  |  |  |  |  |  |  |  | 
8 | H1H6765P-SMCC-DM1 (conjugate) VH: EVQLVESGGGVVRPGGSLRLSCVGSGFSFDDHGMNWVRQGPGKGLEWVSGFNWNGGSTNYAESVKGRFTISRDNARNSLFLQMNSLRAEDTALYYCVRGRSGWFNDAFDVWGPGTMVTVSS VL: EIVLTQSPGTLSLSPGERATLSCRASQTINSNYLAWYRQKPGQTPRLLIYGTSSRATGIPDRFSGSGSGTDFSLTISRLEPEDFAVFYCQQYAGLPTFGPGTKVDIK | 90 | 0.3 | 100 | 85 | 90 | 1 | 70 | 150 |  |  |  |  | 81 | 0.1 | 71 | 90 | 83 | 0.3
9 | H1H6958N2-SPDB-DM4 (conjugate) VH: QVQLVESGGGVVQPGRSLRLSCGASGFTFRNYGMQWVRQGPGKGLEWVTLISFDGNDKYYADSVKGRFTISRDNSKNTLFLQMNSLRTEDTAVYYCARGGDFDYWGQGTLVTVSS VL: DIQMTQSPSSLSASVGDRVTITCRASQDIRKDLGWYQQKPGKAPKRLIYAASSLHSGVPSRFSGSGSGTEFTLTISSLQPEDFATYYCLQHNSYPMYTFGQGTKLEIK | 90 | 0.8 |  |  | 100 | 1 | 80 | 25 |  |  |  |  |  |  |  |  |  | 
10 | H1H6975P-SMCC-DM1 (conjugate) VH: EVHLVESGGGLVQPGGSLRLSCAASGFTFSSYEMNWVRQTPGKGLEWISHISSRSVIIYYADSVKGRFTISRDNAKNSLFLQMNSLRAEDTAVYFCAGITIFGIPEYWGQGTLVTVSS VL: EIVLTQSPATLSLSPGERATLSCRASQSVSSYFAWYQQKPGQAPRLLIYDASSRATGIPTRFSGSGSGTDFTLTISSLEPEDFAVYYCQQRSSWPITFGQGTRLEIK | 80 | 0.2 | 90 | 80 | 100 | 2 | 70 | 200 |  |  |  |  |  |  |  |  |  | 
11 | H1H6975P-mc-VC-PAB-MMD (conjugate) VH: EVHLVESGGGLVQPGGSLRLSCAASGFTFSSYEMNWVRQTPGKGLEWISHISSRSVIIYYADSVKGRFTISRDNAKNSLFLQMNSLRAEDTAVYFCAGITIFGIPEYWGQGTLVTVSS VL: EIVLTQSPATLSLSPGERATLSCRASQSVSSYFAWYQQKPGQAPRLLIYDASSRATGIPTRFSGSGSGTDFTLTISSLEPEDFAVYYCQQRSSWPITFGQGTRLEIK | 90 | 0.2 | 80 |  | 90 | 3 | 50 | 150 |  |  |  |  |  |  |  |  |  | 
